Test system: PL-FXa-b2AR fusion protein (ED - Factor Xa cleavage site - beta2-adrenergic receptor) on HEK293 transient transfectant cells

Q: With Factor Xa as the substance, how does the “EFC activity (relative luminescent units, RLU)” value read?
A: Its value is “a difference in about 30,000 RLUs was observed over a range in concentration of FXa of about 10^-3 to 10^1 ug/mL”.

From patent US7256011
